This passage reports EC50 [nM], 0% HSA and EC50 [nM], 0.1% HSA results from patent US12679878B2, “CRF2 receptor agonists and their use in therapy” (SANOFI, priority 2020, dated 2026).

The assay deals with human corticotropin-releasing factor 2α (CRF2 α receptor) (human), Q13324. Briefly: cell-based or functional assay.

Starred links: 1 amine or outer side, 2 acyl side, 3 side chain; linkers in the order of their positions; H or OH if unused. Non-standard residues stand in square brackets, D forms with d. Groups on a side chain read outwards from the residue. No end group written: not given here. *: point of attachment. C18 diacid = O=C(O)CCCCCCCCCCCCCCCCC(=O)*; γGlu = O=C(O)[C@H](CCC(=O)[*:2])N[*:1]; AEEA = NCCOCCOCC(=O)O; Aib = CC(C)(N)C(=O)O

Sequence of human corticotropin-releasing factor 2α (CRF2 α receptor) (human), Q13324 (Q13324 20-411): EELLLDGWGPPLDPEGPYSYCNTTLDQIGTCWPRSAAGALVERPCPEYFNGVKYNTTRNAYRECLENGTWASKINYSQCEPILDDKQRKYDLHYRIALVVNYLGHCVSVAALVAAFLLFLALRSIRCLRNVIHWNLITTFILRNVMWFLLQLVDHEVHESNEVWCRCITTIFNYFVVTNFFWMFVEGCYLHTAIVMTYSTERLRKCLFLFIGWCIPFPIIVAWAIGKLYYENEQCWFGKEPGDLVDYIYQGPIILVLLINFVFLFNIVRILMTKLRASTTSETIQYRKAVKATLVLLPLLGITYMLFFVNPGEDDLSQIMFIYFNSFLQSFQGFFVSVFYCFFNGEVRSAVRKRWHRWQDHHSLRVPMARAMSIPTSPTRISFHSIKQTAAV

B1: SEQ ID NO: 151 (peptide)
peptide: IVLSLD[dV]PIGLK([AEEA-AEEA-γGlu-C18 diacid])QILLKQERQKK[Aib]REQAEKNKRILERV-NH2
modifications: N-terminus assumed
SMILES: CC[C@H](C)[C@H](N)C(=O)N[C@H](C(=O)N[C@@H](CC(C)C)C(=O)N[C@@H](CO)C(=O)N[C@@H](CC(C)C)C(=O)N[C@@H](CC(=O)O)C(=O)N[C@@H](C(=O)N1CCC[C@H]1C(=O)N[C@H](C(=O)NCC(=O)N[C@@H](CC(C)C)C(=O)N[C@@H](CCCCNC(=O)COCCOCCNC(=O)COCCOCCNC(=O)CC[C@H](NC(=O)CCCCCCCCCCCCCCCCC(=O)O)C(=O)O)C(=O)N[C@@H](CCC(N)=O)C(=O)N[C@H](C(=O)N[C@@H](CC(C)C)C(=O)N[C@@H](CC(C)C)C(=O)N[C@@H](CCCCN)C(=O)N[C@@H](CCC(N)=O)C(=O)N[C@@H](CCC(=O)O)C(=O)N[C@@H](CCCNC(=N)N)C(=O)N[C@@H](CCC(N)=O)C(=O)N[C@@H](CCCCN)C(=O)N[C@@H](CCCCN)C(=O)NC(C)(C)C(=O)N[C@@H](CCCNC(=N)N)C(=O)N[C@@H](CCC(=O)O)C(=O)N[C@@H](CCC(N)=O)C(=O)N[C@@H](C)C(=O)N[C@@H](CCC(=O)O)C(=O)N[C@@H](CCCCN)C(=O)N[C@@H](CC(N)=O)C(=O)N[C@@H](CCCCN)C(=O)N[C@@H](CCCNC(=N)N)C(=O)N[C@H](C(=O)N[C@@H](CC(C)C)C(=O)N[C@@H](CCC(=O)O)C(=O)N[C@@H](CCCNC(=N)N)C(=O)N[C@H](C(N)=O)C(C)C)[C@@H](C)CC)[C@@H](C)CC)[C@@H](C)CC)C(C)C)C(C)C
As to B1, the EC50 [nM], 0% HSA came out at 0.08 nM and the EC50 [nM], 0.1% HSA was 3.87 nM.

B2: SEQ ID NO: 149 (peptide)
peptide: IVLSLD[dV]PIKLK([AEEA-AEEA-γGlu-C18 diacid])QILLKQERQKK[Aib]REQAETNKRILERV-NH2
modifications: N-terminus assumed
SMILES: CC[C@H](C)[C@H](N)C(=O)N[C@H](C(=O)N[C@@H](CC(C)C)C(=O)N[C@@H](CO)C(=O)N[C@@H](CC(C)C)C(=O)N[C@@H](CC(=O)O)C(=O)N[C@@H](C(=O)N1CCC[C@H]1C(=O)N[C@H](C(=O)N[C@@H](CCCCN)C(=O)N[C@@H](CC(C)C)C(=O)N[C@@H](CCCCNC(=O)COCCOCCNC(=O)COCCOCCNC(=O)CC[C@H](NC(=O)CCCCCCCCCCCCCCCCC(=O)O)C(=O)O)C(=O)N[C@@H](CCC(N)=O)C(=O)N[C@H](C(=O)N[C@@H](CC(C)C)C(=O)N[C@@H](CC(C)C)C(=O)N[C@@H](CCCCN)C(=O)N[C@@H](CCC(N)=O)C(=O)N[C@@H](CCC(=O)O)C(=O)N[C@@H](CCCNC(=N)N)C(=O)N[C@@H](CCC(N)=O)C(=O)N[C@@H](CCCCN)C(=O)N[C@@H](CCCCN)C(=O)NC(C)(C)C(=O)N[C@@H](CCCNC(=N)N)C(=O)N[C@@H](CCC(=O)O)C(=O)N[C@@H](CCC(N)=O)C(=O)N[C@@H](C)C(=O)N[C@@H](CCC(=O)O)C(=O)N[C@H](C(=O)N[C@@H](CC(N)=O)C(=O)N[C@@H](CCCCN)C(=O)N[C@@H](CCCNC(=N)N)C(=O)N[C@H](C(=O)N[C@@H](CC(C)C)C(=O)N[C@@H](CCC(=O)O)C(=O)N[C@@H](CCCNC(=N)N)C(=O)N[C@H](C(N)=O)C(C)C)[C@@H](C)CC)[C@@H](C)O)[C@@H](C)CC)[C@@H](C)CC)C(C)C)C(C)C
In turn, B2 gave an EC50 [nM], 0% HSA of 0.06 nM and an EC50 [nM], 0.1% HSA of 2.54 nM.

B3: SEQ ID NO: 16 (peptide)
peptide: IVLSLDVPIGLK([AEEA-AEEA-γGlu-C18 diacid])QKLLKQQRQRKERQQAEKNARILARV-NH2
modifications: N-terminus assumed
SMILES: CC[C@H](C)[C@H](N)C(=O)N[C@H](C(=O)N[C@@H](CC(C)C)C(=O)N[C@@H](CO)C(=O)N[C@@H](CC(C)C)C(=O)N[C@@H](CC(=O)O)C(=O)N[C@H](C(=O)N1CCC[C@H]1C(=O)N[C@H](C(=O)NCC(=O)N[C@@H](CC(C)C)C(=O)N[C@@H](CCCCNC(=O)COCCOCCNC(=O)COCCOCCNC(=O)CC[C@H](NC(=O)CCCCCCCCCCCCCCCCC(=O)O)C(=O)O)C(=O)N[C@@H](CCC(N)=O)C(=O)N[C@@H](CCCCN)C(=O)N[C@@H](CC(C)C)C(=O)N[C@@H](CC(C)C)C(=O)N[C@@H](CCCCN)C(=O)N[C@@H](CCC(N)=O)C(=O)N[C@@H](CCC(N)=O)C(=O)N[C@@H](CCCNC(=N)N)C(=O)N[C@@H](CCC(N)=O)C(=O)N[C@@H](CCCNC(=N)N)C(=O)N[C@@H](CCCCN)C(=O)N[C@@H](CCC(=O)O)C(=O)N[C@@H](CCCNC(=N)N)C(=O)N[C@@H](CCC(N)=O)C(=O)N[C@@H](CCC(N)=O)C(=O)N[C@@H](C)C(=O)N[C@@H](CCC(=O)O)C(=O)N[C@@H](CCCCN)C(=O)N[C@@H](CC(N)=O)C(=O)N[C@@H](C)C(=O)N[C@@H](CCCNC(=N)N)C(=O)N[C@H](C(=O)N[C@@H](CC(C)C)C(=O)N[C@@H](C)C(=O)N[C@@H](CCCNC(=N)N)C(=O)N[C@H](C(N)=O)C(C)C)[C@@H](C)CC)[C@@H](C)CC)C(C)C)C(C)C
In the case of B3, the EC50 [nM], 0% HSA worked out at 0.3 nM.

B4: SEQ ID NO: 147 (peptide)
peptide: IVLSLD[dV]PIGLK([AEEA-AEEA-γGlu-C18 diacid])QILLKQERQKK[Aib]REQAETNKQILAQV-NH2
modifications: N-terminus assumed
SMILES: CC[C@H](C)[C@H](N)C(=O)N[C@H](C(=O)N[C@@H](CC(C)C)C(=O)N[C@@H](CO)C(=O)N[C@@H](CC(C)C)C(=O)N[C@@H](CC(=O)O)C(=O)N[C@@H](C(=O)N1CCC[C@H]1C(=O)N[C@H](C(=O)NCC(=O)N[C@@H](CC(C)C)C(=O)N[C@@H](CCCCNC(=O)COCCOCCNC(=O)COCCOCCNC(=O)CC[C@H](NC(=O)CCCCCCCCCCCCCCCCC(=O)O)C(=O)O)C(=O)N[C@@H](CCC(N)=O)C(=O)N[C@H](C(=O)N[C@@H](CC(C)C)C(=O)N[C@@H](CC(C)C)C(=O)N[C@@H](CCCCN)C(=O)N[C@@H](CCC(N)=O)C(=O)N[C@@H](CCC(=O)O)C(=O)N[C@@H](CCCNC(=N)N)C(=O)N[C@@H](CCC(N)=O)C(=O)N[C@@H](CCCCN)C(=O)N[C@@H](CCCCN)C(=O)NC(C)(C)C(=O)N[C@@H](CCCNC(=N)N)C(=O)N[C@@H](CCC(=O)O)C(=O)N[C@@H](CCC(N)=O)C(=O)N[C@@H](C)C(=O)N[C@@H](CCC(=O)O)C(=O)N[C@H](C(=O)N[C@@H](CC(N)=O)C(=O)N[C@@H](CCCCN)C(=O)N[C@@H](CCC(N)=O)C(=O)N[C@H](C(=O)N[C@@H](CC(C)C)C(=O)N[C@@H](C)C(=O)N[C@@H](CCC(N)=O)C(=O)N[C@H](C(N)=O)C(C)C)[C@@H](C)CC)[C@@H](C)O)[C@@H](C)CC)[C@@H](C)CC)C(C)C)C(C)C
Consider B4, for which the EC50 [nM], 0% HSA was determined as 0.18 nM and the EC50 [nM], 0.1% HSA turned out to be 8.17 nM.

B5: SEQ ID NO: 148 (peptide)
peptide: IVLSLDVPIGLK([AEEA-AEEA-γGlu-C18 diacid])QILLKQERQKK[Aib]REQAETNKRILERV-NH2
modifications: N-terminus assumed
SMILES: CC[C@H](C)[C@H](N)C(=O)N[C@H](C(=O)N[C@@H](CC(C)C)C(=O)N[C@@H](CO)C(=O)N[C@@H](CC(C)C)C(=O)N[C@@H](CC(=O)O)C(=O)N[C@H](C(=O)N1CCC[C@H]1C(=O)N[C@H](C(=O)NCC(=O)N[C@@H](CC(C)C)C(=O)N[C@@H](CCCCNC(=O)COCCOCCNC(=O)COCCOCCNC(=O)CC[C@H](NC(=O)CCCCCCCCCCCCCCCCC(=O)O)C(=O)O)C(=O)N[C@@H](CCC(N)=O)C(=O)N[C@H](C(=O)N[C@@H](CC(C)C)C(=O)N[C@@H](CC(C)C)C(=O)N[C@@H](CCCCN)C(=O)N[C@@H](CCC(N)=O)C(=O)N[C@@H](CCC(=O)O)C(=O)N[C@@H](CCCNC(=N)N)C(=O)N[C@@H](CCC(N)=O)C(=O)N[C@@H](CCCCN)C(=O)N[C@@H](CCCCN)C(=O)NC(C)(C)C(=O)N[C@@H](CCCNC(=N)N)C(=O)N[C@@H](CCC(=O)O)C(=O)N[C@@H](CCC(N)=O)C(=O)N[C@@H](C)C(=O)N[C@@H](CCC(=O)O)C(=O)N[C@H](C(=O)N[C@@H](CC(N)=O)C(=O)N[C@@H](CCCCN)C(=O)N[C@@H](CCCNC(=N)N)C(=O)N[C@H](C(=O)N[C@@H](CC(C)C)C(=O)N[C@@H](CCC(=O)O)C(=O)N[C@@H](CCCNC(=N)N)C(=O)N[C@H](C(N)=O)C(C)C)[C@@H](C)CC)[C@@H](C)O)[C@@H](C)CC)[C@@H](C)CC)C(C)C)C(C)C
Molecule B5 returned an EC50 [nM], 0% HSA of 0.29 nM and an EC50 [nM], 0.1% HSA of 14.3 nM.

B6: SEQ ID NO: 150 (peptide)
peptide: IVLSLD[dV]PIGLK([AEEA-AEEA-γGlu-C18 diacid])QILLKQERQKK[Aib]RQQAETNKRILERV-NH2
modifications: N-terminus assumed
SMILES: CC[C@H](C)[C@H](N)C(=O)N[C@H](C(=O)N[C@@H](CC(C)C)C(=O)N[C@@H](CO)C(=O)N[C@@H](CC(C)C)C(=O)N[C@@H](CC(=O)O)C(=O)N[C@@H](C(=O)N1CCC[C@H]1C(=O)N[C@H](C(=O)NCC(=O)N[C@@H](CC(C)C)C(=O)N[C@@H](CCCCNC(=O)COCCOCCNC(=O)COCCOCCNC(=O)CC[C@H](NC(=O)CCCCCCCCCCCCCCCCC(=O)O)C(=O)O)C(=O)N[C@@H](CCC(N)=O)C(=O)N[C@H](C(=O)N[C@@H](CC(C)C)C(=O)N[C@@H](CC(C)C)C(=O)N[C@@H](CCCCN)C(=O)N[C@@H](CCC(N)=O)C(=O)N[C@@H](CCC(=O)O)C(=O)N[C@@H](CCCNC(=N)N)C(=O)N[C@@H](CCC(N)=O)C(=O)N[C@@H](CCCCN)C(=O)N[C@@H](CCCCN)C(=O)NC(C)(C)C(=O)N[C@@H](CCCNC(=N)N)C(=O)N[C@@H](CCC(N)=O)C(=O)N[C@@H](CCC(N)=O)C(=O)N[C@@H](C)C(=O)N[C@@H](CCC(=O)O)C(=O)N[C@H](C(=O)N[C@@H](CC(N)=O)C(=O)N[C@@H](CCCCN)C(=O)N[C@@H](CCCNC(=N)N)C(=O)N[C@H](C(=O)N[C@@H](CC(C)C)C(=O)N[C@@H](CCC(=O)O)C(=O)N[C@@H](CCCNC(=N)N)C(=O)N[C@H](C(N)=O)C(C)C)[C@@H](C)CC)[C@@H](C)O)[C@@H](C)CC)[C@@H](C)CC)C(C)C)C(C)C
Consider B6, for which the EC50 [nM], 0% HSA stood at 0.07 nM and the EC50 [nM], 0.1% HSA was 3.99 nM.
